Data: the supplement of paper PMC9112550, “Optimization of the antimicrobial peptide Bac7 by deep mutational scanning” (BMC Biology, 2022)

Tested on: Escherichia coli TOP10
Assay: shrunken log2 fold change of peptide-encoding DNA abundance (4.5 h post-induction vs induction); higher = less antimicrobial activity (less host growth inhibition)
Details: time post-induction: 4.5 h; library: site-saturation at positions 5, 18, 19, 20
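Further: peptides expressed intracellularly from a pBAD plasmid library in pooled LB shake-flask culture, induced with 0.3% L-arabinose, DNA abundance read by NGS, three biological replicates, DESeq2 with apeglm shrinkage.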

Sequence	shrunken log2 fold change
RRIRARPPRLPRPRPRPFQQPRP	0.00604
RRIRARPPRLPRPRPRPFRCPRP	-0.0823
RRIRARPPRLPRPRPRPFRHPRP	-0.0722
RRIRARPPRLPRPRPRPFRIPRP	-0.169
RRIRARPPRLPRPRPRPFRLPRP	0.114
RRIRARPPRLPRPRPRPFRMPRP	-0.184
RRIRARPPRLPRPRPRPFSNPRP	-0.342
RRIRARPPRLPRPRPRPFSPPRP	-0.342
RRIRARPPRLPRPRPRPFTQPRP	-0.0692
RRIRARPPRLPRPRPRPFTVPRP	-0.253
RRIRARPPRLPRPRPRPFWDPRP	0.00119
RRIRARPPRLPRPRPRPFWLPRP	0.0704
RRIRARPPRLPRPRPRPFYRPRP	-0.178
RRIRARPPRLPRPRPRPGASPRP	0.978
RRIRARPPRLPRPRPRPGCDPRP	0.78
RRIRARPPRLPRPRPRPGCHPRP	0.265
RRIRARPPRLPRPRPRPGDCPRP	0.366
RRIRARPPRLPRPRPRPGDIPRP	-0.0868
RRIRARPPRLPRPRPRPGFIPRP	-0.339
RRIRARPPRLPRPRPRPGFNPRP	0.252

Sequence	shrunken log2 fold change
RRIRARPPRLPRPRPRPGFYPRP	0.0241
RRIRARPPRLPRPRPRPGHEPRP	0.054
RRIRARPPRLPRPRPRPGIFPRP	0.468
RRIRARPPRLPRPRPRPGIPPRP	0.162
RRIRARPPRLPRPRPRPGISPRP	0.337
RRIRARPPRLPRPRPRPGKEPRP	0.222
RRIRARPPRLPRPRPRPGLRPRP	0.331
RRIRARPPRLPRPRPRPGMFPRP	0.295
RRIRARPPRLPRPRPRPGNYPRP	0.208
RRIRARPPRLPRPRPRPGQGPRP	0.204
RRIRARPPRLPRPRPRPGQMPRP	0.0151
RRIRARPPRLPRPRPRPGQRPRP	0.107
RRIRARPPRLPRPRPRPGSLPRP	0.056
RRIRARPPRLPRPRPRPGSNPRP	0.127
RRIRARPPRLPRPRPRPGSYPRP	0.14
RRIRARPPRLPRPRPRPGTCPRP	0.153
RRIRARPPRLPRPRPRPGTFPRP	-0.125
RRIRARPPRLPRPRPRPGVPPRP	0.727
RRIRARPPRLPRPRPRPGVYPRP	0.011
RRIRARPPRLPRPRPRPGWAPRP	0.72

Sequence	shrunken log2 fold change
RRIRARPPRLPRPRPRPGWCPRP	0.465
RRIRARPPRLPRPRPRPGWKPRP	0.167
RRIRARPPRLPRPRPRPGWRPRP	0.473
RRIRARPPRLPRPRPRPGYIPRP	-0.383
RRIRARPPRLPRPRPRPGYRPRP	-0.107
RRIRARPPRLPRPRPRPHANPRP	-0.0153
RRIRARPPRLPRPRPRPHAVPRP	0.123
RRIRARPPRLPRPRPRPHDQPRP	0.808
RRIRARPPRLPRPRPRPHDTPRP	0.111
RRIRARPPRLPRPRPRPHEAPRP	-0.0395
RRIRARPPRLPRPRPRPHEKPRP	0.358
RRIRARPPRLPRPRPRPHFCPRP	-0.105
RRIRARPPRLPRPRPRPHFDPRP	0.22
RRIRARPPRLPRPRPRPHFHPRP	-0.197
RRIRARPPRLPRPRPRPHFPPRP	0.0382
RRIRARPPRLPRPRPRPHGMPRP	0.238
RRIRARPPRLPRPRPRPHGQPRP	0.0639
RRIRARPPRLPRPRPRPHIAPRP	-0.111
RRIRARPPRLPRPRPRPHKVPRP	0.31
RRIRARPPRLPRPRPRPHKWPRP	0.192
